We go through 16 molecules from patent publication US20250289873A1 (BROADWING BIO, published 2025).

Numbering of substitutions follows the chain as printed.

T1: human CFHL3-His (ATX-P-58) (human, UniProt Q02985 19-330)
T1 construct: also called human CFHR3 protein; CFHR3; not shown: C-terminal His tag (and linker)
T1 sequence (looked up): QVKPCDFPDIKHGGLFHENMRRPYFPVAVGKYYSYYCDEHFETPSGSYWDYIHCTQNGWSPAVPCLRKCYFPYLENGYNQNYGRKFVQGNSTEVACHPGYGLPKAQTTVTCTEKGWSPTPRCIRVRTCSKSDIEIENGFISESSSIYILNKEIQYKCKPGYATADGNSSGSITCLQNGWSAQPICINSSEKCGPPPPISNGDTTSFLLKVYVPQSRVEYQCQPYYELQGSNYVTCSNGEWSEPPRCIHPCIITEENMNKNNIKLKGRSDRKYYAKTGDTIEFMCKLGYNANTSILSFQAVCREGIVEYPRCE

T2: Human CFHL1-Y402H-His (ATX-P-421) (human)
T2 construct: also called human CFHL-1 (Y402H) protein
T2 chain: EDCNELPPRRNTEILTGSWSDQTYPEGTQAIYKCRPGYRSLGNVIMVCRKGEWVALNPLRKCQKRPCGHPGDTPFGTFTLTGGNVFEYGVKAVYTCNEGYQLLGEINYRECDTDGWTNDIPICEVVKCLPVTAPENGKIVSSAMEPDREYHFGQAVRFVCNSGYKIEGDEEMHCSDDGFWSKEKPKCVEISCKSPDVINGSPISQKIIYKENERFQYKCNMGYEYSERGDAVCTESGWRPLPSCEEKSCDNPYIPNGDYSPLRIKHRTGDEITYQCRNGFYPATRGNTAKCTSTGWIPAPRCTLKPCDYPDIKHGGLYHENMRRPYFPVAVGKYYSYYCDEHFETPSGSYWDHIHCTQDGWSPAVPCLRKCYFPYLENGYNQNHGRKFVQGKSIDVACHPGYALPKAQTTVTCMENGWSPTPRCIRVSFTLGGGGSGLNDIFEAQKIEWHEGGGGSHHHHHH

B1: ATX-P-569 (antibody, human IgG1, kappa, N297A, V domains shown)
VH: EVQLVESGGGLAQFGRSLRLSCAASGFTFDDYAMHWLRQAPGMGLEWVSGISWNSGSIGYADSVKGRFTIARDNAKNSVHLQMNSLRAEDTALYYCAKDIGNGYTKGDVFDIWGQGTMVTVSS
VL: DIQMTQSPSTLSASVGDSVTITCRASQNIITWLAWYQQKPGKAPNLLIYKASSLESGVPSRFSGSGSGTEFTLTISSLQPDDFATYYCQQYSSYSYTFGQGTKLEIKR
B2: ATX-P-592 (antibody, human IgG1, kappa, N297A, V domains shown)
VH: QVQLQQSGPGLVKPSQTLSLTCAISGDSVSSNSAAWNWIRQSPSRGLEWLGRTYYRSKWYSDYPLSVKSRITINPDTSKNQFSLQLNSVTPEDTAVYYCARDSGIVETTPFDYWGQGTLVTVSS
VL: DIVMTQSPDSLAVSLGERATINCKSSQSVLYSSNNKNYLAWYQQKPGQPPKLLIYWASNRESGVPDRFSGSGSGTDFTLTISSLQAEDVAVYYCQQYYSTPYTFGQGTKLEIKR
B3: ATX-P-572 (antibody, human IgG1, kappa, N297A, V domains shown)
VH: B2 VH with R52M, D62V, Y63F, P64A, L65V, P75T, D102E, S103G, E107G, T108A
VL: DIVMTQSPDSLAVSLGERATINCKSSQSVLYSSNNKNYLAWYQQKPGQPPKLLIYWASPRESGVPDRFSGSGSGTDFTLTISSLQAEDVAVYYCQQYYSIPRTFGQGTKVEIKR
B4: ATX-P-595 (antibody, human IgG1, kappa, N297A, V domains shown)
VH: B2 VH with Y60F, S61N, P64A, Q85H, D102E, S103P, E107A, T108P, T109G
VL: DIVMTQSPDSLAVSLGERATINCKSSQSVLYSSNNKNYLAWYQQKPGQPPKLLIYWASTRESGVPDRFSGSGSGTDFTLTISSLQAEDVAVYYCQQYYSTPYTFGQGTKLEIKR
B5: ATX-P-596 (antibody, human IgG1, kappa, N297A, V domains shown)
VH: EVQLVESGGGLVQPGRSLRLSCAASGFSFDDYAMHWVRQVPGKGLEWVSGISWTGGSVGYADPVKGRFTISRDNAKNSLYLQMNSLRPEDTALYYCAKDMGDGYSRNWPFDYWGQGTLVTVSS
VL: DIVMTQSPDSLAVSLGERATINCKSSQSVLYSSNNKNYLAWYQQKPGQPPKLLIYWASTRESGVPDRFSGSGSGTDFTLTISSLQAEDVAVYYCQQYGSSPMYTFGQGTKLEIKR
B6: ATX-P-608 (antibody, human IgG1, kappa, N297A, V domains shown)
VH: QVQLQESGPGLVKPSGTLSLTCAVSGGSISSSNWWSWVRQSPGKGLEWIGEIYHTGSTNKKPSLKSRVIISVDKSKNQFSLKLISVNAADTAIYYCARDREGGTTEAFDIWGQGTMVTVSS
VL: EIVMTQSPATLSVSPGERATLSCRASQSVSSNLAWYQQKPGQAPRLLIYGASTRATGIPVRFSGSGSGTQFTLTISSLQSEDFAVYYCQQYDNWRTFGQGTRLEIKR
B7: ATX-P-609 (antibody, human IgG1, kappa, N297A, V domains shown)
VH: QVQLQESGPGLVKPSGTLSLTCAVSGGSISSSNWWSWVRQPPGKGLEWIGEIYHSGSTNYNPSLKSRVTISVDKSKNQFSLKLRSVTAADTAVYYCARDQLSSGPTDAFDIWGQGTMVTVSS
VL: B6 VL with R102K
B8: ATX-P-587 (antibody, human IgG1, kappa, N297A, V domains shown)
VH: QVQLQQSGPGLVKPSQTLSLTCAISGDSVSSNSAAWNWIRQSPSRGLEWLGKTYYRSKWYNYYALSVKSRITINPDTSKNQFSLHLNSVTPEDTAVYYCARDGDYYLPSPFDLWGHGTMVTVSS
VL: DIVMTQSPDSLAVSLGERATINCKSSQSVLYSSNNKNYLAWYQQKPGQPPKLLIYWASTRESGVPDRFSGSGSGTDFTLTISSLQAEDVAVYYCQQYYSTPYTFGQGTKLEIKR
B9: ATX-P-588 (antibody, human IgG1, kappa, N297A, V domains shown)
VH: EVQLVESGGGLVQPGRSLRLSCAASGFTFEDYAMHWVRQAPGKGLEWVSGISWNSGSIGYADSVKGRFTISRDNAKKSLYLQMNSLRAEDTALYYCTKDRDDGYNYAGVFDYWGQGTLVTVSS
VL: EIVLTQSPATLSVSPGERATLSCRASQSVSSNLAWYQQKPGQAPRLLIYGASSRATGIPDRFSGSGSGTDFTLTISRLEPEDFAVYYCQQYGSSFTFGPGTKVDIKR
B10: ATX-P-600 (antibody, human IgG1, kappa, N297A, V domains shown)
VH: B9 VH with E30D, A40V, K43R, N54S, S55G, A75S, K77N, D101E, A107G
VL: EIVLTQSPGTLSLSPGERATLSCRASQNVRGSYLAWYQQKPGQAPRLLIYGASNRATDIPDRFSGSGSGTDFTLTISGLEPEDFVVYYCQQYGSSYTFGQGTKVEIKR
B11: ATX-P-594 (antibody, human IgG1, kappa, N297A, V domains shown)
VH: QVQLQQSGPGLVKPSQTLSLTCAISGDSVSSNSASWNWIRQSPSRGLEWLGTTYYRSKWFNVYAVSVKSRITINPDTSKNQFSLHLNSVTPEDTAIYFCTRDRGDLLHWYFDLWGRGTLVTVSS
VL: EIVLTQSPGTLSLSPGERATLSCRASQSVSSSYLAWYQQKPGQSPRLLIYGASSRATGIPDRFSGSGSGTDFTLTISRLEPEDFAVYYCQQYGRSVTFGGGTKLEIKR
B12: ATX-P-561 (antibody, human IgG1, kappa, N297A, V domains shown)
VH: QVQLQQSGPGLVKPSQTLSLTCAISGDSVSSNSAAWNWIRQSPSRGLEWLGRTYYRSKWYNGYAVSMKSRITINPDTSKNQFSLQLNSVTPEDTAMYYCAREGVGATTGFDYWGQGTLVTVSS
VL: DIQMTQSPSSLSASVGDRVTITCRASQGISSWLTWYQQKPGKAPKLLIYAASSLQGGVPSRFSGSGSGTDFTLTISSLQPEDFATYYCQQANSFPPTFGQGTKVEIKR
B13: ATX-P-610 (antibody, human IgG1, kappa, N297A, V domains shown)
VH: QVQLQQSGPGLVKSSQTLSITCAISGDSVSSNSAAWNWIRQSPSRGLEWLGRTYYRSKWYNDYALSVKSRIIIKSDTSKNQFSLQLNSVTPEDTAVYYCAREPGIAAPGPFDYWGQGSLVTVSS
VL: B12 VL with L11V, T34A, G56S, A91N, N92Y, S93R, F94T, P96I, K103R, V104L
B14: ATX-P-571 (antibody, human IgG1, kappa, N297A, V domains shown)
VH: QVQLQESGPGLVKPSGTLSLTCAVSGGSISSRNWWSWVRQPPGKGLEWIGEIYHGGTTNYNPSLKSRVTISVDKSKNQFSLKLSSVTAADTAVYYCARGGLRLGELSPNAFDIWGQGTMVTVSS
VL: DIQMTQSPSSLSASVGDRVTITCRASQSISSYLNWYQQKPGKAPKVLIYAASSLQSGIPSRFSGSGSGTDFTLTISSLQPEDFATYYCQETYSVPLTFGGGTKVEIKR
B15: ATX-P-570 (antibody, human IgG1, kappa, N297A, V domains shown)
VH: QVQLQESGPGLVKPSETMSLTCTVSGGSFTGYYWSWIRQPPGKGLEWIGYVHYSGGTKSNPSLKSRVTISVDTSKNQFSLKLSSVTAADTAVYYCARERYEWNSYFDYWGQGTLVTVSS
VL: not shown
B16: ATX-P-603 (antibody, human IgG1, kappa, N297A, V domains shown)
VH: QVQLQESGPGLVKPSGTLSLTCAVSGGSISGSHWWSWFRQPPGKGLEWIGEIYHTGSTNKNPSLKSRVTISLDKSKNQFSLRLRSVTDADTAVYYCARDQYTGSPRDAFDIWGQGTMVTVSS
VL: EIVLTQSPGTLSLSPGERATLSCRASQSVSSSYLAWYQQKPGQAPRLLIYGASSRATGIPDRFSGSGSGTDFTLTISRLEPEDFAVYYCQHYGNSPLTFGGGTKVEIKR

The first experiment concerns the target T1, human CFHL3-His (ATX-P-58). The experiment can be described thus: Carterra LSA biosensor, mAb printed on chip, human CFHL3-His at 550 nM. As to the method: (§1) Experiments were also conducted to determine the reactivity of the CFHR4 antibodies with the human CFHR3 protein (FIG. 9). The binding experiments were performed on Carterra LSA with a running buffer of PBS pH 7.40, 1% BSA, 0.05% Tween20. Antibodies were covalently printed on an HC30M chip. Chip was activated with 33 mM s-NHS and 133 mM EDC in 100 mM MES pH 5.5 for 7 minutes. Antibodies at 10 mg/ml in acetic acid buffer pH 4.5 were used for printing for 10 min. The printed chip was then quenched with 1 M ethanolamine pH 8.5 for 7 min. For the reactivity assay, ATX-P-58, human CFHL3-His, at 550 nM was tested with 5 min association followed by 15 min dissociation. Results were processed and analyzed in Carterra LSA Kinetics Software. The data was referenced with the interstitial reference spots and double-referenced to a buffer cycle, and then the responses (nm) after association were reported. Isotype control was used to determine the cutoff response for positive binding.
With B1, the binding result is “binds”.

For the molecule B2, the binding result is reported as “binds”. B3: the binding result is “binds”. With B4, the binding result was “binds”. As for B5, the binding result is on record as “binds”. Same read-out and setting: for B6 the value was “binds”; for B7, “binds”; for B8, “binds”. Regarding B9, the binding result is given as “binds”. Consider B10, for which the binding result is given as “binds”.

On to B11, for which the binding result is given as “binds”.

Regarding B12, the binding result is recorded as “binds”. For B13, the binding result is “binds”.

The target in another experiment is T2, Human CFHL1-Y402H-His (ATX-P-421). Description: Carterra LSA biosensor, mAb printed on chip, human CFHL1-Y402H-His at 380 nM. As for the experimental part: as §1, with “CFHL-1 (Y402H)” for “CFHR3”, “10).” for “9).”, “ATX-P-421,” for “ATX-P-58,”, “CFHL1-Y402H-His,” for “CFHL3-His,”, “380” for “550”
Take B4: the binding result is given as “binds”. For B5, the binding result is “binds”. As to B14, the binding result was “binds”.

Regarding B8, the binding result is “binds”. As for B15, the binding result is “binds”. Consider B9, for which the binding result is “binds”. Take B10: the binding result was “binds”. On the same count and under the same terms, then B11, with “binds”. On to B12, for which the binding result is reported as “binds”.

The target of a further experiment is T1, human CFHL3-His (ATX-P-58). The experiment can be described thus: Carterra LSA biosensor, mAb printed on chip, cutoff set by isotype control. As for the experimental part: as §1
as §1, with “CFHL-1 (Y402H)” for “CFHR3”, “10).” for “9).”, “ATX-P-421,” for “ATX-P-58,”, “CFHL1-Y402H-His,” for “CFHL3-His,”, “380” for “550”
Regarding B14, the binding result is “no binding (tested: 550 nM)”. Take B15: the binding result is given as “no binding (tested: 550 nM)”.

A further experiment has as its target T2, Human CFHL1-Y402H-His (ATX-P-421). Described as above. As for the experimental part:
as §1
as §1, with “CFHL-1 (Y402H)” for “CFHR3”, “10).” for “9).”, “ATX-P-421,” for “ATX-P-58,”, “CFHL1-Y402H-His,” for “CFHL3-His,”, “380” for “550”
As for B1, the binding result is “no binding (tested: 380 nM)”.

As to B2, the binding result is “no binding (tested: 380 nM)”. Still for that read-out and setting: for B3 the value was “no binding (tested: 380 nM)”; for B6, “no binding (tested: 380 nM)”. Take B7: the binding result is reported as “no binding (tested: 380 nM)”.

For the molecule B16, the binding result is given as “no binding (tested: 380 nM)”.

With B13, the binding result is on record as “no binding (tested: 380 nM)”.
